Source: the Human Domainome abundance scans (Beltran et al. 2025)
± gives the uncertainty stated by the source.

B1: Pre-mRNA-processing factor 40 homolog B, residues 274 to 332; numbered along this chain, Q6NWY9 (parent)
chain: SNREKAKQAFKELLRDKAVPSNASWEQAMKMVVTDPRYSALPKLSEKKQAFNAYKAQRE

Variants of: B1
Assay: abundance fitness (aPCA) (normalised: wild type 0, dead -1); higher = more abundant; growth selection in yeast, the domain comes from the species named
Conditions: Homo sapiens

Row | Variant | abundance fitness
1 | K30F | -0.76 ± 0.17
2 | K30G | -0.214 ± 0.067
3 | K30H | -0.384 ± 0.19
4 | K30I | -0.701 ± 0.19
5 | K30L | -0.42 ± 0.088
6 | K30M | -0.247 ± 0.11
7 | K30P | -0.146 ± 0.11
8 | K30Q | -0.072 ± 0.2
9 | K30R | -0.03 ± 0.062
10 | K30S | -0.156 ± 0.087
11 | K30T | -0.143 ± 0.084
12 | K30V | -0.429 ± 0.074
13 | K30W | -0.999 ± 0.15
14 | K30Y | -1.08 ± 0.23
15 | M31C | -0.422 ± 0.12
16 | M31D | -0.272 ± 0.11
17 | M31E | -0.109 ± 0.088
18 | M31F | -0.634 ± 0.19
19 | M31G | -0.231 ± 0.059
20 | M31H | -0.208 ± 0.17
21 | M31K | -0.293 ± 0.094
22 | M31L | -0.189 ± 0.099
23 | M31N | -0.364 ± 0.17
24 | M31P | -0.247 ± 0.15

Row | Variant | abundance fitness
25 | M31Q | -0.246 ± 0.15
26 | M31R | -0.266 ± 0.06
27 | M31S | -0.115 ± 0.077
28 | M31T | -0.336 ± 0.11
29 | M31V | -0.326 ± 0.084
30 | M31W | -0.865 ± 0.13
31 | M31Y | -0.32 ± 0.14
32 | V32A | -0.489 ± 0.079
33 | V32C | -0.113 ± 0.078
34 | V32D | -0.347 ± 0.091
35 | V32E | -0.166 ± 0.09
36 | V32F | -0.619 ± 0.13
37 | V32G | -0.381 ± 0.055
38 | V32H | -0.091 ± 0.13
39 | V32I | 0.178 ± 0.086
40 | V32K | -0.171 ± 0.11
41 | V32L | -0.182 ± 0.1
42 | V32M | -0.175 ± 0.1
43 | V32N | -0.294 ± 0.14
44 | V32P | -0.439 ± 0.11
45 | V32Q | -0.428 ± 0.14
46 | V32R | -0.599 ± 0.064
47 | V32S | -0.343 ± 0.075
48 | V32T | -0.094 ± 0.083

Row | Variant | abundance fitness
49 | V32W | -0.732 ± 0.091
50 | V32Y | -0.583 ± 0.12
51 | V33A | 0.141 ± 0.074
52 | V33C | 0.137 ± 0.086
53 | V33D | 0.006 ± 0.13
54 | V33E | 0.169 ± 0.093
55 | V33F | -0.228 ± 0.11
56 | V33G | 0.055 ± 0.054
57 | V33H | 0.164 ± 0.14
58 | V33K | 0.169 ± 0.12
59 | V33L | -0.135 ± 0.067
60 | V33M | 0.171 ± 0.12
61 | V33N | 0.152 ± 0.16
62 | V33P | -0.384 ± 0.12
63 | V33Q | 0.053 ± 0.17
64 | V33S | 0.198 ± 0.073
65 | V33T | -0.042 ± 0.12
66 | V33W | 0.012 ± 0.088
67 | V33Y | -0.269 ± 0.2
68 | T34A | 0.028 ± 0.061
69 | T34E | -0.039 ± 0.09
70 | T34F | -0.382 ± 0.15
71 | T34G | 0.108 ± 0.059
72 | T34H | 0.043 ± 0.12

Row | Variant | abundance fitness
73 | T34I | -0.611 ± 0.11
74 | T34L | -0.358 ± 0.066
75 | T34M | -0.071 ± 0.089
76 | T34N | 0.232 ± 0.12
77 | T34P | -0.554 ± 0.11
78 | T34Q | -0.015 ± 0.1
79 | T34R | -0.257 ± 0.06
80 | T34S | 0.003 ± 0.068
81 | T34V | -0.419 ± 0.073
82 | T34W | -0.544 ± 0.083
83 | T34Y | -0.23 ± 0.11
84 | D35A | -0.701 ± 0.083
85 | D35E | -0.372 ± 0.084
86 | D35F | -0.951 ± 0.26
87 | D35G | -0.742 ± 0.063
88 | D35I | -0.94 ± 0.2
89 | D35K | -1.11 ± 0.18
90 | D35L | -0.853 ± 0.1
91 | D35M | -0.699 ± 0.12
92 | D35N | -0.415 ± 0.15
93 | D35P | -0.905 ± 0.14
94 | D35Q | -0.823 ± 0.16
95 | D35R | -1.12 ± 0.093
96 | D35S | -0.716 ± 0.097

Row | Variant | abundance fitness
97 | D35T | -0.714 ± 0.13
98 | D35V | -0.85 ± 0.079
99 | D35W | -1.21 ± 0.12
100 | D35Y | -1.38 ± 0.31
101 | P36A | -0.19 ± 0.076
102 | P36C | -0.381 ± 0.11
103 | P36D | -0.049 ± 0.1
104 | P36E | -0.103 ± 0.086
105 | P36F | -0.307 ± 0.13
106 | P36G | -0.391 ± 0.059
107 | P36H | -0.445 ± 0.21
108 | P36L | -0.63 ± 0.07
109 | P36M | -0.607 ± 0.1
110 | P36N | -0.418 ± 0.17
111 | P36Q | -0.289 ± 0.13
112 | P36R | -0.24 ± 0.064
113 | P36S | -0.366 ± 0.075
114 | P36T | -0.293 ± 0.1
115 | P36V | -0.353 ± 0.074
116 | P36W | -0.669 ± 0.092
117 | P36Y | -0.806 ± 0.13
118 | R37A | -0.223 ± 0.069
119 | R37C | -0.668 ± 0.12
120 | R37D | -0.74 ± 0.16

Row | Variant | abundance fitness
121 | R37E | -0.479 ± 0.082
122 | R37F | -0.905 ± 0.21
123 | R37G | -0.577 ± 0.051
124 | R37H | -0.776 ± 0.19
125 | R37I | -0.228 ± 0.14
126 | R37L | -0.6 ± 0.081
127 | R37M | -0.705 ± 0.094
128 | R37Q | -0.49 ± 0.11
129 | R37T | -0.658 ± 0.12
130 | R37W | -0.836 ± 0.085
131 | R37Y | -1.25 ± 0.33
132 | Y38A | -0.317 ± 0.067
133 | Y38C | -0.368 ± 0.11
134 | Y38D | -0.346 ± 0.11
135 | Y38E | -0.399 ± 0.08
136 | Y38F | -0.02 ± 0.12
137 | Y38G | -0.436 ± 0.059
138 | Y38H | -0.392 ± 0.13
139 | Y38I | -0.548 ± 0.18
140 | Y38K | -0.217 ± 0.1
141 | Y38L | -0.546 ± 0.073
142 | Y38M | -0.613 ± 0.096
143 | Y38N | -0.466 ± 0.13
144 | Y38P | -0.423 ± 0.081

Row | Variant | abundance fitness
145 | Y38Q | -0.284 ± 0.1
146 | Y38R | -0.476 ± 0.054
147 | Y38S | -0.293 ± 0.059
148 | Y38T | -0.136 ± 0.077
149 | Y38V | -0.38 ± 0.062
150 | Y38W | -0.085 ± 0.07
151 | S39A | -0.02 ± 0.068
152 | S39C | -0.141 ± 0.094
153 | S39D | -0.068 ± 0.11
154 | S39E | 0.102 ± 0.11
155 | S39G | -0.071 ± 0.068
156 | S39H | 0.098 ± 0.11
157 | S39K | -0.228 ± 0.14
158 | S39L | -0.342 ± 0.084
159 | S39M | -0.053 ± 0.19
160 | S39N | 0.333 ± 0.17
161 | S39P | -0.527 ± 0.14
162 | S39Q | -0.191 ± 0.16
163 | S39R | 0.032 ± 0.061
164 | S39T | -0.099 ± 0.095
165 | S39W | -0.278 ± 0.1
166 | S39Y | -0.247 ± 0.12
167 | A40C | -0.129 ± 0.2
